Measurements: IntAct's records for PubMed 26226295

B1: EH domain-containing protein 3 (Homo sapiens), Q9NZN3 (parent)
chain: MFSWLGTDDRRRKDPEVFQTVSEGLKKLYKSKLLPLEEHYRFHEFHSPALEDADFDNKPMVLLVGQYSTGKTTFIRYLLEQDFPGMRIGPEPTTDSFIAVMQGDMEGIIPGNALVVDPKKPFRKLNAFGNAFLNRFVCAQLPNPVLESISVIDTPGILSGEKQRISRGYDFAAVLEWFAERVDRIILLFDAHKLDISDEFSEVIKALKNHEDKMRVVLNKADQIETQQLMRVYGALMWSLGKIVNTPEVIRVYIGSFWSHPLLIPDNRKLFEAEEQDLFRDIQSLPRNAALRKLNDLIKRARLAKVHAYIISSLKKEMPSVFGKDNKKKELVNNLAEIYGRIEREHQISPGDFPNLKRMQDQLQAQDFSKFQPLKSKLLEVVDDMLAHDIAQLMVLVRQEESQRPIQMVKGGAFEGTLHGPFGHGYGEGAGEGIDDAEWVVARDKPMYDEIFYTLSPVDGKITGANAKKEMVRSKLPNSVLGKIWKLADIDKDGMLDDDEFALANHLIKVKLEGHELPNELPAHLLPPSKRKVAE
partner: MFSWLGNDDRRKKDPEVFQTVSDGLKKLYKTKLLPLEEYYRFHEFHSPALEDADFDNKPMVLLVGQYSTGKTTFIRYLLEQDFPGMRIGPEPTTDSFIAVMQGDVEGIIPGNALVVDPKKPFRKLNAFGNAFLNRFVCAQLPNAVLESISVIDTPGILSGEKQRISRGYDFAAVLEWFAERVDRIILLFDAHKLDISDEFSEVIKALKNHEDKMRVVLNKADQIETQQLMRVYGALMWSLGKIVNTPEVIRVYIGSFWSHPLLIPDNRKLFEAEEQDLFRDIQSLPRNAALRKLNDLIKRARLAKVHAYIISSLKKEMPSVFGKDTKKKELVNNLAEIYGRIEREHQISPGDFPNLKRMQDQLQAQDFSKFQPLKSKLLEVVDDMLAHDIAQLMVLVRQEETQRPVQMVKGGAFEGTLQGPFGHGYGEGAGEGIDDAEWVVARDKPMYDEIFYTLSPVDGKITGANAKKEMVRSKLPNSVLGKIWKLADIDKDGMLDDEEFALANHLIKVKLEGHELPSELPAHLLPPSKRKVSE
B2: EH domain-containing protein 3 (Mus musculus), Q9QXY6 (parent)
chain: B1 partner
partner: B1 chain
B3: EH domain-containing protein 3 (Homo sapiens), Q9NZN3 (parent)
chain: B1 chain
partner: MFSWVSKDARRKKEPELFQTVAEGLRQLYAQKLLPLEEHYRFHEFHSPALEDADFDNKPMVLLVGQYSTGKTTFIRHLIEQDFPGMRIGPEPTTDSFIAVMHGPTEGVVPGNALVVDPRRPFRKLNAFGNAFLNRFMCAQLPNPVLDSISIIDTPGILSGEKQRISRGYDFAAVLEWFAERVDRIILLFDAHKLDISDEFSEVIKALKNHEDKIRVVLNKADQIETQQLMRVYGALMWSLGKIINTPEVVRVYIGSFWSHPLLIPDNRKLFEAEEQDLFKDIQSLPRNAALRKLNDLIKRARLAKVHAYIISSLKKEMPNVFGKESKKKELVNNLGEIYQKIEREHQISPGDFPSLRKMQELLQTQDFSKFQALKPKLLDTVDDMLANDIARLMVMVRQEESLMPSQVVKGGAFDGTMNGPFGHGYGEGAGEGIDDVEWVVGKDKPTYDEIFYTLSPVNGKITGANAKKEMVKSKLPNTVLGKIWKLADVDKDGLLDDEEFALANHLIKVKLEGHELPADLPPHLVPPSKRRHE

Variants of: B1
Conditions: with ehd3_mouse Ehd3, Q9QXY6

| effect of a mutation on the interaction | Variant |
| --- | --- |
| with no effect | K315R;K511R |

Variants of: B1
Conditions: with ehd3_mouse Ehd3, Q9QXY6
Remark: another data set of the same source

| effect of a mutation on the interaction | Variant |
| --- | --- |
| with no effect | K315R |

Variants of: B1
Conditions: with ehd3_mouse Ehd3, Q9QXY6
Remark: another data set of the same source

| effect of a mutation on the interaction | Variant |
| --- | --- |
| with no effect | K511R |

Variants of: B2
Conditions: with ehd3_human EHD3, Q9NZN3

| effect of a mutation on the interaction | Variant |
| --- | --- |
| with no effect | K315R;K511R |

Variants of: B2
Conditions: with ehd3_human EHD3, Q9NZN3
Remark: another data set of the same source

| effect of a mutation on the interaction | Variant |
| --- | --- |
| decreasing interaction | K315R;K511R |
| decreasing interaction | K511R |

Variants of: B3
Conditions: with ehd1_human EHD1, Q9H4M9

| effect of a mutation on the interaction | Variant |
| --- | --- |
| with no effect | K315R;K511R |
| with no effect | K511R |
| with no effect | K315R |

Variants of: B3
Conditions: with ehd1_human EHD1, Q9H4M9
Remark: another data set of the same source

| effect of a mutation on the interaction | Variant |
| --- | --- |
| disrupting interaction | K315R;K511R |
| decreasing interaction | K511R |
